Results on seven sequences are retold here after the supplement of paper PMC5998384.

The subject of data set [1] is HeLa Kyoto. As to the kind of experiment: solubility change mitosis vs G1/S (difference of NP-40 vs SDS log2 ratios) (log2 ratio difference); higher = more soluble in mitosis.
Data set [2] deals with HeLa Kyoto. As to the kind of experiment: thermal stability score vs G1/S (z-score of summed log2 fold changes over temperatures); higher = more thermally stable than in G1/S.
Data set [3] relates to HeLa Kyoto. As to the kind of experiment: solubility in G1/S (NP-40 vs SDS abundance) (log2 ratio); higher = more soluble. The note with it: cell cycle stage: G1/S.
Data set [4] has as its system HeLa Kyoto. Put plainly: melting temperature (median over replicates), in situ; higher = more thermally stable.
[5] abbreviates: cell cycle stage: early G1 (4.5 h after nocodazole release).
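For melting temperature (median over replicates), in situ in this document: HeLa Kyoto cells synchronized by double thymidine or nocodazole block, proteins quantified by TMT10plex mass spectrometry, three independent biological replicates.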
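For solubility change mitosis vs G1/S (difference of NP-40 vs SDS log2 ratios) in this document: synchronized HeLa Kyoto cells (double thymidine block for G1/S, nocodazole release for mitosis), protein amounts in NP-40 versus SDS lysates quantified by mass spectrometry, three biological replicates.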
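For solubility in G1/S (NP-40 vs SDS abundance) in this document: HeLa Kyoto cells arrested at G1/S by double thymidine block, proteins quantified by TMT10plex mass spectrometry in mild NP-40 versus SDS extracts, three biological replicates.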
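For thermal stability score vs G1/S (z-score of summed log2 fold changes over temperatures) in this document: synchronized HeLa Kyoto cells, proteins quantified by TMT10plex mass spectrometry, three biological replicates, mitosis taken 0.5 h after nocodazole release, G1/S directly after double thymidine block.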

As to “MRPPGFLSRAPSLNRAERGIWSCSMDQREPLPPAPAENEMKYDTNNNEEEEGEQFDFDSGDEIPEADRQAPSAPETGGAGASEAPAPTGGEDGAGAETTPVAEPTKLVLPMKVNPYSVIDITPFQEDQPPTPVPSAEEENVGLHVPCGYLVPVPCGYAVPSNLPLLLPAYSSPVIICATSLDEEAETPEVTEDRQPNSLSSEEPPTSEDQVGREDSALARWAADPANTAWMENPEEAIYDDVPRENSDSEPDEMIYDDVENGDEGGNSSLEYGWSSSEFESYEEQSDSECKNGIPRSFLRSNHKKQLSHDLTRLKEHYEKKMRDLMASTVGVVEIQQLRQKHELKMQKLVKAAKDGTKDGLERTRAAVKRGRSFIRTKSLIAQDHRSSLEEEQNLFIDVDCKHPEAILTPMPEGLSQQQVVRRYILGSVVDSEKNYVDALKRILEQYEKPLSEMEPKVLSERKLKTVFYRVKEILQCHSLFQIALASRVSEWDSVEMIGDVFVASFSKSMVLDAYSEYVNNFSTAVAVLKKTCATKPAFLEFLKQEQEASPDRTTLYSLMMKPIQRFPQFILLLQDMLKNTSKGHPDRLPLQMALTELETLAEKLNERKRDADQRCEVKQIAKAINERYLNKLLSSGSRYLIRSDDMIETVYNDRGEIVKTKERRVFMLNDVLMCATVSSRPSHDSRVMSSQRYLLKWSVPLGHVDAIEYGSSAGTGEHSRHLAVHPPESLAVVANAKPNKVYMGPGQLYQDLQNLLHDLNVIGQITQLIGNLKGNYQNLNQSVAHDWTSGLQRLILKKEDEIRAADCCRIQLQLPGKQDKSGRPTFFTAVFNTFTPAIKESWVNSLQMAKLALEEENHMGWFCVEDDGNHIKKEKHPLLVGHMPVMVAKQQEFKIECAAYNPEPYLNNESQPDSFSTAHGFLWIGSCTHQMGQIAIVSFQNSTPKVIECFNVESRILCMLYVPVEEKRREPGAPPDPETPAVRASDVPTICVGTEEGSISIYKSSQGSKKVRLQHFFTPEKSTVMSLACTSQSLYAGLVNGAVASYARAPDGSWDSEPQKVIKLGVLPVRSLLMMEDTLWAASGGQVFIISVETHAVEGQLEAHQEEGMVISHMAVSGVGIWIAFTSGSTLRLFHTETLKHLQDINIATPVHNMLPGHQRLSVTSLLVCHGLLMVGTSLGVLVALPVPRLQGIPKVTGRGMVSYHAHNSPVKFIVLATALHEKDKDKSRDSLAPGPEPQDEDQKDALPSGGAGSSLSQGDPDAAIWLGDSLGSMTQKSDLSSSSGSLSLSHGSSSLEHRSEDSTIYDLLKDPVSLRSKARRAKKAKASSALVVCGGQGHRRVHRKARQPHQEELAPTVMVWQIPLLNI [ARHGEF10]”, the “solubility change mitosis (log2)” value in data set [1] was -0.182. Moreover, the thermal stability score in data set [2] (setting [5]) is -0.414; in data set [2] (cell cycle stage: mitosis) it was 0.205. Moreover, the “solubility in G1/S (log2)” value in data set [3] was -0.0539. For the same sequence, the results for the melting temperature in data set [4] (cell cycle stage: G1/S) and in data set [4] (cell cycle stage: mitosis) were 49.3 °C and 49.8 °C, respectively.
Regarding “MRQKHYLEAAARGLHDSCPGQARYLLWAYTSSHDDKSTFEETCPYCFQLLVLDNSRVRLKPKARLTPKIQKLLNREARNYTLSFKEAKMVKKFKDSKSVLLITCKTCNRTVKHHGKSRSFVSTLKSNPATPTSKLSLKTPERRTANPNHDMSGSKGKSPASVFRTPTSGQSVSTCSSKNTSKTKKHFSQLKMLLSQNESQKIPKVDFRNFLSSLKGGLLK [C18ORF21]”, the “solubility change mitosis (log2)” value in data set [1] is 2.72. Further, the thermal stability score in data set [2] (setting [5]) is -0.862; in data set [2] (cell cycle stage: mitosis) it was -0.417. In data set [3], the “solubility in G1/S (log2)” value is -0.722. This sequence also displayed a melting temperature in data set [4] (cell cycle stage: mitosis) of 46.8 °C.
For the sequence “MRRKEKRLLQAVALVLAALVLLPNVGLWALYRERQPDGTPGGSGAAVAPAAGQGSHSRQKKTFFLGDGQKLKDWHDKEAIRRDAQRVGNGEQGRPYPMTDAERVDQAYRENGFNIYVSDKISLNRSLPDIRHPNCNSKRYLETLPNTSIIIPFHNEGWSSLLRTVHSVLNRSPPELVAEIVLVDDFSDREHLKKPLEDYMALFPSVRILRTKKREGLIRTRMLGASVATGDVITFLDSHCEANVNWLPPLLDRIARNRKTIVCPMIDVIDHDDFRYETQAGDAMRGAFDWEMYYKRIPIPPELQKADPSDPFESPVMAGGLFAVDRKWFWELGGYDPGLEIWGGEQYEISFKVWMCGGRMEDIPCSRVGHIYRKYVPYKVPAGVSLARNLKRVAEVWMDEYAEYIYQRRPEYRHLSAGDVAVQKKLRSSLNCKSFKWFMTKIAWDLPKFYPPVEPPAAAWGEIRNVGTGLCADTKHGALGSPLRLEGCVRGRGEAAWNNMQVFTFTWREDIRPGDPQHTKKFCFDAISHTSPVTLYDCHSMKGNQLWKYRKDKTLYHPVSGSCMDCSESDHRIFMNTCNPSSLTQQWLFEHTNSTVLEKFNRN [GALNT10]”, the “solubility change mitosis (log2)” value in data set [1] is -0.0786. The thermal stability score in data set [2] (setting [5]) was found to be 0.401; in data set [2] (cell cycle stage: mitosis), 0.507. The “solubility in G1/S (log2)” value in data set [3] was -0.106. Further, the melting temperature in data set [4] (cell cycle stage: G1/S) was 49.9 °C; in data set [4] (cell cycle stage: mitosis) it was 52.5 °C.
With “MRRLPRALLLQLRLALLVAAGAPEVLVSAPRSLVWGPGLQAAVVLPVRYFYLQAVNSEGQNLTRSPAGETPFKVVVKSLSPKELVRIHVPKPLDRNDGTFLMRYRMYETVDEGLKIEVLYGDEHVAQSPYILKGPVYHEYCECPEDPQAWQKTLSCPTKEPQIAKDFASFPSINLQQMLKEVPKRFGDERGAIVHYTILNNHVYRRSLGKYTDFKMFSDEILLSLTRKVLLPDLEFYVNLGDWPLEHRKVNGTPSPIPIISWCGSLDSRDVVLPTYDITHSMLEAMRGVTNDLLSIQGNTGPSWINKTERAFFRGRDSREERLQLVQLSKENPQLLDAGITGYFFFQEKEKELGKAKLMGFFDFFKYKYQVNVDGTVAAYRYPYLMLGDSLVLKQDSPYYEHFYMALEPWKHYVPIKRNLSDLLEKVKWAKENDEEAKKIAKEGQLMARDLLQPHRLYCYYYQVLQKYAERQSSKPEVRDGMELVPQPEDSTAICQCHRKKPSREEL [KDELC2]”, the “solubility change mitosis (log2)” value in data set [1] is -0.048. Further, the results for the thermal stability score in data set [2] (setting [5]) and in data set [2] (cell cycle stage: mitosis) were 4.98 and 4.71, respectively. Moreover, the “solubility in G1/S (log2)” value in data set [3] was determined as 0.282. For the same sequence, the melting temperature in data set [4] (cell cycle stage: G1/S) came to 53.8 °C; in data set [4] (cell cycle stage: mitosis), 54.9 °C.
For “MRSAAAAPRSPAVATESRRFAAARWPGWRSLQRPARRSGRGGGGAAPGPYPSAAPPPPGPGPPPSRQSSPPSASDCFGSNGNGGGAFRPGSRRLLGLGGPPRPFVVLLLPLASPGAPPAAPTRASPLGARASPPRSGVSLARPAPGCPRPACEPVYGPLTMSLKPQQQQQQQQQQQQQQQQQQQQQQQPPPAAANVRKPGGSGLLASPAAAPSPSSSSVSSSSATAPSSVVAATSGGGRPGLGRGRNSNKGLPQSTISFDGIYANMRMVHILTSVVGSKCEVQVKNGGIYEGVFKTYSPKCDLVLDAAHEKSTESSSGPKREEIMESILFKCSDFVVVQFKDMDSSYAKRDAFTDSAISAKVNGEHKEKDLEPWDAGELTANEELEALENDVSNGWDPNDMFRYNEENYGVVSTYDSSLSSYTVPLERDNSEEFLKREARANQLAEEIESSAQYKARVALENDDRSEEEKYTAVQRNSSEREGHSINTRENKYIPPGQRNREVISWGSGRQNSPRMGQPGSGSMPSRSTSHTSDFNPNSGSDQRVVNGGVPWPSPCPSPSSRPPSRYQSGPNSLPPRAATPTRPPSRPPSRPSRPPSHPSAHGSPAPVSTMPKRMSSEGPPRMSPKAQRHPRNHRVSAGRGSISSGLEFVSHNPPSEAATPPVARTSPSGGTWSSVVSGVPRLSPKTHRPRSPRQNSIGNTPSGPVLASPQAGIIPTEAVAMPIPAASPTPASPASNRAVTPSSEAKDSRLQDQRQNSPAGNKENIKPNETSPSFSKAENKGISPVVSEHRKQIDDLKKFKNDFRLQPSSTSESMDQLLNKNREGEKSRDLIKDKIEPSAKDSFIENSSSNCTSGSSKPNSPSISPSILSNTEHKRGPEVTSQGVQTSSPACKQEKDDKEEKKDAAEQVRKSTLNPNAKEFNPRSFSQPKPSTTPTSPRPQAQPSPSMVGHQQPTPVYTQPVCFAPNMMYPVPVSPGVQPLYPIPMTPMPVNQAKTYRAVPNMPQQRQDQHHQSAMMHPASAAGPPIAATPPAYSTQYVAYSPQQFPNQPLVQHVPHYQSQHPHVYSPVIQGNARMMAPPTHAQPGLVSSSATQYGAHEQTHAMYACPKLPYNKETSPSFYFAISTGSLAQQYAHPNATLHPHTPHPQPSATPTGQQQSQHGGSHPAPSPVQHHQHQAAQALHLASPQQQSAIYHAGLAPTPPSMTPASNTQSPQNSFPAAQQTVFTIHPSHVQPAYTNPPHMAHVPQAHVQSGMVPSHPTAHAPMMLMTTQPPGGPQAALAQSALQPIPVSTTAHFPYMTHPSVQAHHQQQL [ATXN2]”, in data set [1], the “solubility change mitosis (log2)” value came out at 0.278. Further, the thermal stability score in data set [2] (setting [5]) was -0.37; in data set [2] (cell cycle stage: mitosis), -1.31. Also, the “solubility in G1/S (log2)” value in data set [3] was -0.281. Further, the figures for the melting temperature in data set [4] (cell cycle stage: G1/S) and in data set [4] (cell cycle stage: mitosis) were 52.5 °C and 51.9 °C, respectively.
As for “MRSAAKPWNPAIRAGGHGPDRVRPLPAASSGMKSSKSSTSLAFESRLSRLKRASSEDTLNKPGSTAASGVVRLKKTATAGAISELTESRLRSGTGAFTTTKRTGIPAPREFSVTVSRERSVPRGPSNPRKSVSSPTSSNTPTPTKHLRTPSTKPKQENEGGEKAALESQVRELLAEAKAKDSEINRLRSELKKYKEKRTLNAEGTDALGPNVDGTSVSPGDTEPMIRALEEKNKNFQKELSDLEEENRVLKEKLIYLEHSPNSEGAASHTGDSSCPTSITQESSFGSPTGNQMSSDIDEYKKNIHGNALRTSGSSSSDVTKASLSPDASDFEHITAETPSRPLSSTSNPFKSSKCSTAGSSPNSVSELSLASLTEKIQKMEENHHSTAEELQATLQELSDQQQMVQELTAENEKLVDEKTILETSFHQHRERAEQLSQENEKLMNLLQERVKNEEPTTQEGKIIELEQKCTGILEQGRFEREKLLNIQQQLTCSLRKVEEENQGALEMIKRLKEENEKLNEFLELERHNNNMMAKTLEECRVTLEGLKMENGSLKSHLQGEKQKATEASAVEQTAESCEVQEMLKVARAEKDLLELSCNELRQELLKANGEIKHVSSLLAKVEKDYSYLKEICDHQAEQLSRTSLKLQEKASESDAEIKDMKETIFELEDQVEQHRAVKLHNNQLISELESSVIKLEEQKSDLERQLKTLTKQMKEETEEWRRFQADLQTAVVVANDIKCEAQQELRTVKRKLLEEEEKNARLQKELGDVQGHGRVVTSRAAPPPVDEEPESSEVDAAGRWPGVCVSRTSPTPPESATTVKSLIKSFDLGRPGGAGQNISVHKTPRSPLSGIPVRTAPAAAVSPMQRHSTYSSVRPASRGVTQRLDLPDLPLSDILKGRTETLKPDPHLRKSPSLESLSRPPSLGFGDTRLLSASTRAWKPQSKLSVERKDPLAALAREYGGSKRNALLKWCQKKTQGYANIDITNFSSSWSDGLAFCALLHTYLPAHIPYQELNSQEKKRNLLLAFEAAESVGIKPSLELSEMLYTDRPDWQSVMQYVAQIYKYFET [SPECC1]”, in data set [1], the “solubility change mitosis (log2)” value was -0.147. For the same sequence, the thermal stability score in data set [2] (setting [5]) was -1.45; in data set [2] (cell cycle stage: mitosis), -1.95. Further, the “solubility in G1/S (log2)” value in data set [3] worked out at 0.148. The melting temperature is 52.2 °C in data set [4] (cell cycle stage: G1/S) and 51.5 °C in data set [4] (cell cycle stage: mitosis).
Consider “MRSGGRGRPRLRLGERGLMEPLLPPKRRLLPRVRLLPLLLALAVGSAFYTIWSGWHRRTEELPLGRELRVPLIGSLPEARLRRVVGQLDPQRLWSTYLRPLLVVRTPGSPGNLQVRKFLEATLRSLTAGWHVELDPFTASTPLGPVDFGNVVATLDPRAARHLTLACHYDSKLFPPGSTPFVGATDSAVPCALLLELAQALDLELSRAKKQAAPVTLQLLFLDGEEALKEWGPKDSLYGSRHLAQLMESIPHSPGPTRIQAIELFMLLDLLGAPNPTFYSHFPRTVRWFHRLRSIEKRLHRLNLLQSHPQEVMYFQPGEPFGSVEDDHIPFLRRGVPVLHLISTPFPAVWHTPADTEVNLHPPTVHNLCRILAVFLAEYLGL [QPCTL]”, for which the “solubility change mitosis (log2)” value in data set [1] is 0.00122. The thermal stability score stood at 3.48 in data set [2] (setting [5]) and 4.18 in data set [2] (cell cycle stage: mitosis). Besides, in data set [3], the “solubility in G1/S (log2)” value was -0.29. The melting temperature turned out to be 51.9 °C in data set [4] (cell cycle stage: G1/S) and 52.7 °C in data set [4] (cell cycle stage: mitosis).
